Starred links: 1 amine or outer side, 2 acyl side, 3 side chain; linkers in the order of their positions; H or OH if unused. Non-standard residues stand in square brackets, D forms with d. Groups on a side chain read outwards from the residue. No end group written: not given here. *: point of attachment. C18 diacid = O=C(O)CCCCCCCCCCCCCCCCC(=O)*; γGlu = O=C(O)[C@H](CCC(=O)[*:2])N[*:1]; Palmitoyl = CCCCCCCCCCCCCCCC(=O)*; AEEA = NCCOCCOCC(=O)O; Aib = CC(C)(N)C(=O)O

EC50 [nM], 0% HSA and EC50 [nM], 0.1% HSA data for 6 molecules are collected here from patent US12679878B2, “CRF2 receptor agonists and their use in therapy” (SANOFI, priority 2020, dated 2026).

The assay deals with human corticotropin-releasing factor 2α (CRF2 α receptor) (human), Q13324. Kind of assay: cell-based or functional assay.
human corticotropin-releasing factor 2α (CRF2 α receptor) (human), Q13324, sequence (Q13324 20-411): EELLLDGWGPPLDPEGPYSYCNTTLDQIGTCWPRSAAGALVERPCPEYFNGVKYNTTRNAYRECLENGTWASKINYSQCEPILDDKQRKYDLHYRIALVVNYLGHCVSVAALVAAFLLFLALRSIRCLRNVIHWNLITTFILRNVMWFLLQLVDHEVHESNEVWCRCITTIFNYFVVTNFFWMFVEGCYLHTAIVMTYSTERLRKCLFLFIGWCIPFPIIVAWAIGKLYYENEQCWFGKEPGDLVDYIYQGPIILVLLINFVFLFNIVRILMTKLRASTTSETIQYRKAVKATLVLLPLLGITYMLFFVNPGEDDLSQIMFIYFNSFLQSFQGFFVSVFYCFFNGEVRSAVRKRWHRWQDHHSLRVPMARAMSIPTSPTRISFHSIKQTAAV

B1: SEQ ID NO: 156 (peptide)
peptide: IVLSLDVPIGLK([AEEA-AEEA-γGlu-C18 diacid])QILLKQERQKK[Aib]REQAETNAQILAQV-NH2
modifications: N-terminus assumed
SMILES: CC[C@H](C)[C@H](N)C(=O)N[C@H](C(=O)N[C@@H](CC(C)C)C(=O)N[C@@H](CO)C(=O)N[C@@H](CC(C)C)C(=O)N[C@@H](CC(=O)O)C(=O)N[C@H](C(=O)N1CCC[C@H]1C(=O)N[C@H](C(=O)NCC(=O)N[C@@H](CC(C)C)C(=O)N[C@@H](CCCCNC(=O)COCCOCCNC(=O)COCCOCCNC(=O)CC[C@H](NC(=O)CCCCCCCCCCCCCCCCC(=O)O)C(=O)O)C(=O)N[C@@H](CCC(N)=O)C(=O)N[C@H](C(=O)N[C@@H](CC(C)C)C(=O)N[C@@H](CC(C)C)C(=O)N[C@@H](CCCCN)C(=O)N[C@@H](CCC(N)=O)C(=O)N[C@@H](CCC(=O)O)C(=O)N[C@@H](CCCNC(=N)N)C(=O)N[C@@H](CCC(N)=O)C(=O)N[C@@H](CCCCN)C(=O)N[C@@H](CCCCN)C(=O)NC(C)(C)C(=O)N[C@@H](CCCNC(=N)N)C(=O)N[C@@H](CCC(=O)O)C(=O)N[C@@H](CCC(N)=O)C(=O)N[C@@H](C)C(=O)N[C@@H](CCC(=O)O)C(=O)N[C@H](C(=O)N[C@@H](CC(N)=O)C(=O)N[C@@H](C)C(=O)N[C@@H](CCC(N)=O)C(=O)N[C@H](C(=O)N[C@@H](CC(C)C)C(=O)N[C@@H](C)C(=O)N[C@@H](CCC(N)=O)C(=O)N[C@H](C(N)=O)C(C)C)[C@@H](C)CC)[C@@H](C)O)[C@@H](C)CC)[C@@H](C)CC)C(C)C)C(C)C
Molecule B1 displayed an EC50 [nM], 0% HSA of 1.06 nM.

B2: SEQ ID NO: 154 (peptide)
peptide: IVLSLDVPIGLK([AEEA-AEEA-γGlu-C18 diacid])QILLEQEKQEKEKQQAETNKRILERV-NH2
modifications: N-terminus assumed
SMILES: CC[C@H](C)[C@H](N)C(=O)N[C@H](C(=O)N[C@@H](CC(C)C)C(=O)N[C@@H](CO)C(=O)N[C@@H](CC(C)C)C(=O)N[C@@H](CC(=O)O)C(=O)N[C@H](C(=O)N1CCC[C@H]1C(=O)N[C@H](C(=O)NCC(=O)N[C@@H](CC(C)C)C(=O)N[C@@H](CCCCNC(=O)COCCOCCNC(=O)COCCOCCNC(=O)CC[C@H](NC(=O)CCCCCCCCCCCCCCCCC(=O)O)C(=O)O)C(=O)N[C@@H](CCC(N)=O)C(=O)N[C@H](C(=O)N[C@@H](CC(C)C)C(=O)N[C@@H](CC(C)C)C(=O)N[C@@H](CCC(=O)O)C(=O)N[C@@H](CCC(N)=O)C(=O)N[C@@H](CCC(=O)O)C(=O)N[C@@H](CCCCN)C(=O)N[C@@H](CCC(N)=O)C(=O)N[C@@H](CCC(=O)O)C(=O)N[C@@H](CCCCN)C(=O)N[C@@H](CCC(=O)O)C(=O)N[C@@H](CCCCN)C(=O)N[C@@H](CCC(N)=O)C(=O)N[C@@H](CCC(N)=O)C(=O)N[C@@H](C)C(=O)N[C@@H](CCC(=O)O)C(=O)N[C@H](C(=O)N[C@@H](CC(N)=O)C(=O)N[C@@H](CCCCN)C(=O)N[C@@H](CCCNC(=N)N)C(=O)N[C@H](C(=O)N[C@@H](CC(C)C)C(=O)N[C@@H](CCC(=O)O)C(=O)N[C@@H](CCCNC(=N)N)C(=O)N[C@H](C(N)=O)C(C)C)[C@@H](C)CC)[C@@H](C)O)[C@@H](C)CC)[C@@H](C)CC)C(C)C)C(C)C
As to B2, the EC50 [nM], 0% HSA turned out to be 15 nM and the EC50 [nM], 0.1% HSA was found to be 15.3 nM.

B3: SEQ ID NO: 152 (peptide)
peptide: IVLSLDVPIKLK([AEEA-AEEA-γGlu-C18 diacid])QILLKQERQKK[Aib]REQAETNKRILERV-NH2
modifications: N-terminus assumed
SMILES: CC[C@H](C)[C@H](N)C(=O)N[C@H](C(=O)N[C@@H](CC(C)C)C(=O)N[C@@H](CO)C(=O)N[C@@H](CC(C)C)C(=O)N[C@@H](CC(=O)O)C(=O)N[C@H](C(=O)N1CCC[C@H]1C(=O)N[C@H](C(=O)N[C@@H](CCCCN)C(=O)N[C@@H](CC(C)C)C(=O)N[C@@H](CCCCNC(=O)COCCOCCNC(=O)COCCOCCNC(=O)CC[C@H](NC(=O)CCCCCCCCCCCCCCCCC(=O)O)C(=O)O)C(=O)N[C@@H](CCC(N)=O)C(=O)N[C@H](C(=O)N[C@@H](CC(C)C)C(=O)N[C@@H](CC(C)C)C(=O)N[C@@H](CCCCN)C(=O)N[C@@H](CCC(N)=O)C(=O)N[C@@H](CCC(=O)O)C(=O)N[C@@H](CCCNC(=N)N)C(=O)N[C@@H](CCC(N)=O)C(=O)N[C@@H](CCCCN)C(=O)N[C@@H](CCCCN)C(=O)NC(C)(C)C(=O)N[C@@H](CCCNC(=N)N)C(=O)N[C@@H](CCC(=O)O)C(=O)N[C@@H](CCC(N)=O)C(=O)N[C@@H](C)C(=O)N[C@@H](CCC(=O)O)C(=O)N[C@H](C(=O)N[C@@H](CC(N)=O)C(=O)N[C@@H](CCCCN)C(=O)N[C@@H](CCCNC(=N)N)C(=O)N[C@H](C(=O)N[C@@H](CC(C)C)C(=O)N[C@@H](CCC(=O)O)C(=O)N[C@@H](CCCNC(=N)N)C(=O)N[C@H](C(N)=O)C(C)C)[C@@H](C)CC)[C@@H](C)O)[C@@H](C)CC)[C@@H](C)CC)C(C)C)C(C)C
In turn, B3 showed an EC50 [nM], 0% HSA of 0.09 nM and an EC50 [nM], 0.1% HSA of 4.94 nM.

B4: SEQ ID NO: 153 (peptide)
peptide: Ac-IVLSLDVPIGLK([AEEA-AEEA-γGlu-C18 diacid])QILLEQEKQEKEKQQAETNAQILAQV-NH2
SMILES: CC[C@H](C)[C@H](NC(C)=O)C(=O)N[C@H](C(=O)N[C@@H](CC(C)C)C(=O)N[C@@H](CO)C(=O)N[C@@H](CC(C)C)C(=O)N[C@@H](CC(=O)O)C(=O)N[C@H](C(=O)N1CCC[C@H]1C(=O)N[C@H](C(=O)NCC(=O)N[C@@H](CC(C)C)C(=O)N[C@@H](CCCCNC(=O)COCCOCCNC(=O)COCCOCCNC(=O)CC[C@H](NC(=O)CCCCCCCCCCCCCCCCC(=O)O)C(=O)O)C(=O)N[C@@H](CCC(N)=O)C(=O)N[C@H](C(=O)N[C@@H](CC(C)C)C(=O)N[C@@H](CC(C)C)C(=O)N[C@@H](CCC(=O)O)C(=O)N[C@@H](CCC(N)=O)C(=O)N[C@@H](CCC(=O)O)C(=O)N[C@@H](CCCCN)C(=O)N[C@@H](CCC(N)=O)C(=O)N[C@@H](CCC(=O)O)C(=O)N[C@@H](CCCCN)C(=O)N[C@@H](CCC(=O)O)C(=O)N[C@@H](CCCCN)C(=O)N[C@@H](CCC(N)=O)C(=O)N[C@@H](CCC(N)=O)C(=O)N[C@@H](C)C(=O)N[C@@H](CCC(=O)O)C(=O)N[C@H](C(=O)N[C@@H](CC(N)=O)C(=O)N[C@@H](C)C(=O)N[C@@H](CCC(N)=O)C(=O)N[C@H](C(=O)N[C@@H](CC(C)C)C(=O)N[C@@H](C)C(=O)N[C@@H](CCC(N)=O)C(=O)N[C@H](C(N)=O)C(C)C)[C@@H](C)CC)[C@@H](C)O)[C@@H](C)CC)[C@@H](C)CC)C(C)C)C(C)C
Regarding B4, the EC50 [nM], 0% HSA is 33.7 nM.

B5: SEQ ID NO: 17 (peptide)
peptide: IVLSLDVPIKLK([γGlu-Palmitoyl])KILLEQEKQKKQREQAETNKQILAQV-NH2
modifications: N-terminus assumed
SMILES: CCCCCCCCCCCCCCCC(=O)N[C@@H](CCC(=O)NCCCC[C@H](NC(=O)[C@H](CC(C)C)NC(=O)[C@H](CCCCN)NC(=O)[C@@H](NC(=O)[C@@H]1CCCN1C(=O)[C@@H](NC(=O)[C@H](CC(=O)O)NC(=O)[C@H](CC(C)C)NC(=O)[C@H](CO)NC(=O)[C@H](CC(C)C)NC(=O)[C@@H](NC(=O)[C@@H](N)[C@@H](C)CC)C(C)C)C(C)C)[C@@H](C)CC)C(=O)N[C@@H](CCCCN)C(=O)N[C@H](C(=O)N[C@@H](CC(C)C)C(=O)N[C@@H](CC(C)C)C(=O)N[C@@H](CCC(=O)O)C(=O)N[C@@H](CCC(N)=O)C(=O)N[C@@H](CCC(=O)O)C(=O)N[C@@H](CCCCN)C(=O)N[C@@H](CCC(N)=O)C(=O)N[C@@H](CCCCN)C(=O)N[C@@H](CCCCN)C(=O)N[C@@H](CCC(N)=O)C(=O)N[C@@H](CCCNC(=N)N)C(=O)N[C@@H](CCC(=O)O)C(=O)N[C@@H](CCC(N)=O)C(=O)N[C@@H](C)C(=O)N[C@@H](CCC(=O)O)C(=O)N[C@H](C(=O)N[C@@H](CC(N)=O)C(=O)N[C@@H](CCCCN)C(=O)N[C@@H](CCC(N)=O)C(=O)N[C@H](C(=O)N[C@@H](CC(C)C)C(=O)N[C@@H](C)C(=O)N[C@@H](CCC(N)=O)C(=O)N[C@H](C(N)=O)C(C)C)[C@@H](C)CC)[C@@H](C)O)[C@@H](C)CC)C(=O)O
As to B5, the EC50 [nM], 0% HSA came out at 0.02 nM.

B6: SEQ ID NO: 155 (peptide)
peptide: IVLSLDVPIGLK([AEEA-AEEA-γGlu-C18 diacid])QILLEQEKQEKEKQQAEKNKRILERV-NH2
modifications: N-terminus assumed
SMILES: CC[C@H](C)[C@H](N)C(=O)N[C@H](C(=O)N[C@@H](CC(C)C)C(=O)N[C@@H](CO)C(=O)N[C@@H](CC(C)C)C(=O)N[C@@H](CC(=O)O)C(=O)N[C@H](C(=O)N1CCC[C@H]1C(=O)N[C@H](C(=O)NCC(=O)N[C@@H](CC(C)C)C(=O)N[C@@H](CCCCNC(=O)COCCOCCNC(=O)COCCOCCNC(=O)CC[C@H](NC(=O)CCCCCCCCCCCCCCCCC(=O)O)C(=O)O)C(=O)N[C@@H](CCC(N)=O)C(=O)N[C@H](C(=O)N[C@@H](CC(C)C)C(=O)N[C@@H](CC(C)C)C(=O)N[C@@H](CCC(=O)O)C(=O)N[C@@H](CCC(N)=O)C(=O)N[C@@H](CCC(=O)O)C(=O)N[C@@H](CCCCN)C(=O)N[C@@H](CCC(N)=O)C(=O)N[C@@H](CCC(=O)O)C(=O)N[C@@H](CCCCN)C(=O)N[C@@H](CCC(=O)O)C(=O)N[C@@H](CCCCN)C(=O)N[C@@H](CCC(N)=O)C(=O)N[C@@H](CCC(N)=O)C(=O)N[C@@H](C)C(=O)N[C@@H](CCC(=O)O)C(=O)N[C@@H](CCCCN)C(=O)N[C@@H](CC(N)=O)C(=O)N[C@@H](CCCCN)C(=O)N[C@@H](CCCNC(=N)N)C(=O)N[C@H](C(=O)N[C@@H](CC(C)C)C(=O)N[C@@H](CCC(=O)O)C(=O)N[C@@H](CCCNC(=N)N)C(=O)N[C@H](C(N)=O)C(C)C)[C@@H](C)CC)[C@@H](C)CC)[C@@H](C)CC)C(C)C)C(C)C
As for B6, the EC50 [nM], 0% HSA turned out to be 8.87 nM.
